The target in test [1] is T1, PACAP38 (human, not fully specified).
T1 peptide: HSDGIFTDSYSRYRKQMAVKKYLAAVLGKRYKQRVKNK
As to the kind of experiment: cell-based or functional assay.

The target of test [2] is T1, PACAP38. The experiment in a line: SPR (Biacore), 37 C, captured antibody; target PACAP38. As to the method:
(§1) In brief, antibody and peptide interaction was determined on a Biacore S200 (GE Healthcare) by method previously described (Andreu and Gomes 2002). An anti-Human IgG Fc capture antibody was immobilized on a CM5 biosensor chip via standard amine coupling. Anti-PACAP antibodies were injected and captured to 200 to 400 response units (RU),). PACAP38, PACAP27 and VIP were diluted in HBS-EP+ buffer containing 0.1% w/v BSA (Bovostar, catalog number BSAS1.0) and 0.15 M NaCl (Sigma-Aldrich catalog number S7653), pH 7.4. Binding kinetics of antibodies were determined by injection of two-fold serial dilutions of PACAPs (12 nm to 0 nM) and VIP (1200 nM to 0 nM) in running buffer at 37° C. with a flow rate of 40 μL/min for 2 min followed by a dissociation for 10 minutes. For subsequent cycles, the chip was regenerated using 0.85% phosphoric acid. Data was analysed with the Biacore S200 Evaluation Software (ver 1.0). Association rate (kₐ) and dissociation rate (kd) constants were determined using a simple one-to-one Langmuir binding model and used to calculate the equilibrium dissociation constant (KD).
(§2) The selectivity of antibody 890C was assessed by comparing the inhibition of PACAP38-signalling to inhibition of VIP-signalling in a cyclic AMP (cAMP) measuring cell-based functional assay.

The target of a further test is T2, PACAP27 (human, not fully specified).
T2 peptide: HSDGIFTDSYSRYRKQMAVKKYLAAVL
The experiment in a line: SPR (Biacore), 37 C, captured antibody; target PACAP27. How it is done: as §1, §2

Another test deals with T3, GLP-1.
T3 construct: also called Glucagon-Like Peptide 1
T3 peptide: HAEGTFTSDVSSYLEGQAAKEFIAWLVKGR
The experiment in a line: SPR (Biacore) at 37 C, captured antibody, 37.5 nM peptide, relative response after 15 sec dissociation. As to the method:
(§3) The anti-PACAP antibodies, e.g., 890C, were tested against related peptides in the Secretin Glucagon family (Table 19) to determine the presence and extent of any off-target binding. Nine bioactive peptides in the glucagon superfamily are: PACAP, VIP, glucagon, Glucagon-Like Peptides (GLP-1, GLP-2), Growth Hormone Releasing Factor (GRF or GHRF), Peptide Histidine Methionine (PHM), secretin, and Gastric inhibitory polypeptide (GIP). Following capture of antibodies as described in example 4, the antibody and the peptide interaction was measured by injection of 37.5 nM of each peptide diluted in buffer at 37° C. with a flow rate of […] for 2 min followed by a dissociation phase of 4-5 min. Samples were injected in a multi-cycle manner over freshly captured anti-PACAP antibody, by regenerating the capture surfaces with two injections of 0.85% phosphoric acid at a flow rate of 30 μL/min.
as §2

In a further test the target is T4, Secretin.
T4 peptide: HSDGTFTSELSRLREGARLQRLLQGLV
Described as above. How it is done: as §3, §2

Another test deals with T5, GRF.
T5 construct: also called GHRF; Growth Hormone Releasing Factor
T5 peptide: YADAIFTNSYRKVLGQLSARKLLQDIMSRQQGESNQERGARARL
Described as above. How it is done:
as §3, §2

The next test concerns the target T6, GIP.
T6 peptide: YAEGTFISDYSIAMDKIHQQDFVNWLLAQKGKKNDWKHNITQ
The description is as above. How it is done: as §3, §2

The next test addresses T7, GLP-2.
T7 construct: also called Glucagon-Like Peptide 2
T7 peptide: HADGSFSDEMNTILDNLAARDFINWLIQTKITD
Described as above. How it is done:
as §3, §2

The next test addresses T8, PHM.
T8 construct: also called Peptide Histidine Methionine
T8 peptide: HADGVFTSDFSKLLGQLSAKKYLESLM
The description is as above. As to the method: as §3, §2

The target in a further test is Glucagon. The description is as above. How it is done: as §3, §2
The target in test [3] is T1, PACAP38. The experiment in a line: cell-based or functional assay.
In test [4] the target is T1, PACAP38. As to the kind of experiment: SPR (Biacore S200) off-rate ranking, antibody captured from supernatant, single injection of 33.3 nM PACAP38. How it is done: as §1, with “Binding kinetics of antibodies were determined by injection of two-fold serial dilutions of PACAPs (12 nm to 0 nM) and VIP (1200 nM to 0 nM) in running buffer at 37° C. with a flow rate of 40 μL/min for 2 min followed by a dissociation for 10 minutes.” left out

Test [5] deals with T1, PACAP38. The experiment in a line: cell-based or functional assay.
The target of test [6] is T1, PACAP38. As to the kind of experiment: SPR (Biacore), 37 C, antibody captured via anti-human Fc, peptide analyte. How it is done:
as §1

In test [7] the target is T9, VIP (human).
T9 construct: also called vasoactive intestinal peptide
T9 peptide: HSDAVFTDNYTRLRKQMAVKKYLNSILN
As to the kind of experiment: SPR (Biacore), 37 C, captured antibody; target VIP. As to the method: as §1, §2

Test [8] has as its target T9, VIP. The experiment in a line: cell-based or functional assay.
In test [9] the target is T1, PACAP38. The experiment in a line: cell-based or functional assay.

1 molecule from US20260226154A1 (CEPHALON, published 2026) can be followed below.

Glucagon, sequence (peptide, as listed by the source): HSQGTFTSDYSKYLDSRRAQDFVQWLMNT

B1: 890C (antibody, human IgG2, kappa, V domains shown)
VH: EVQLVQSGAEVKKPGSSVKVSCKASGGTFSDVYMHWVRQAPGQGLEWMGLIYPIFADTRYAQKFQGRVTITADESTSTAYMELSSLRSEDTAVYYCAIDQDGSFAYWGQGTLVTVSS
VL: DIVMTQSPDSLAVSLGERATINCKSSQSLLDADGKTYLNWLQQKPGQPPKRLIYWASTRESGVPDRFSGSGSGTDFTLTISSLQAEDVAVYYCWQGTWFDLTFGGGTKVEIKR
notes: Full chains as named '890C heavy chain' / '890C light chain' (IgG2DASS, kappa); also called anti-PACAP antibody 890C
In the case of B1, the “PACAP-38 IC50” value with PACAP38 [1] came to 0.32 nM. For the same molecule, the Kd with PACAP38 [2] was found to be 0.054 nM; with PACAP27 it was 0.218 nM; in the test with PACAP38 [4] it was 0.0284 nM; with PACAP38 [6] it was 0.0284 nM; with VIP [7], 390 nM. The binding result in the test with GLP-1, in the test with Secretin, in the test with GRF, in the test with GIP, in the test with GLP-2 and with PHM was “no binding (tested: 37.5 nM)” each time. In addition, the binding result with Glucagon was “no binding (tested: 37.5 nM)”. In addition, the “selectivity, inhibition of PACAP38-induced cAMP production (CHO-K1, PAC1 receptor) versus VIP-induced cAMP production (CHO-K1, VPAC1 receptor)” value with PACAP38 [3] is above 1000 fold. Besides, the dissociation rate constant (koff) with PACAP38 [4] and in the test with PACAP38 [6] was 0.000671 s⁻¹ in each case. Further, the kon in the test with PACAP38 [4] and with PACAP38 [6] was 2.36e+07 M⁻¹ s⁻¹ throughout. In addition, in the test with PACAP38 [5], the “IC50 (nM), PACAP-induced cAMP accumulation, CHO-K1 cells, cAMP-Glo” value came to 0.32 nM. In the test with VIP [8], the “IC50 (read off the curve), VIP-induced cAMP production, CHO-K1 cells expressing VPAC1” value was around 600 nM. Also, the “IC50 (read off the curve), PACAP-induced cAMP production, CHO-K1 cells expressing PAC1” value with PACAP38 [9] was around 0.4 nM. Further, in the test with PACAP38 [9], the “fold shift between the PACAP/PAC1 and the VIP/VPAC1 inhibition curves (selectivity for PACAP over VIP)” value was found to be 1400 fold.
